Common to all, as to assay: HPLC-UV of product, Michaelis-Menten
Holding throughout (type): biochemical, Cichorium intybus

Substrate in data set [1]: O=C(O)C1=C[C@@H](O)[C@@H](O)[C@H](O)C1
The note with it: acyl acceptor varied, saturating p-coumaroyl-CoA (800 μM), 50 mM phosphate pH 7.1, room temperature. The source says: HPLC-UV of product, Michaelis-Menten on HCT1 (CiHCT1)

Substrate in data set [2]: O=C(O)[C@]1(O)C[C@@H](O)[C@@H](O)[C@H](O)C1
The conditions noted are these: acyl acceptor varied, saturating caffeoyl-CoA (800 μM), 50 mM phosphate pH 7.1, room temperature. The text has this: HPLC-UV of product, Michaelis-Menten on HQT3 (CiHQT3)

Substrate in data set [3]: O=C(O)[C@]1(O)C[C@@H](O)[C@@H](O)[C@H](O)C1
The note with it: acyl acceptor varied, saturating caffeoyl-CoA (800 μM), 50 mM phosphate pH 7.1, room temperature. The text has this:
HPLC-UV of product, Michaelis-Menten on HQT2 (CiHQT2)
The source holds these as a separate data set.

Substrate in data set [4]: O=C(O)[C@]1(O)C[C@@H](O)[C@@H](O)[C@H](O)C1
The note with it: acyl acceptor varied, saturating caffeoyl-CoA (800 μM), 50 mM phosphate pH 7.1, room temperature. The text has this:
HPLC-UV of product, Michaelis-Menten on HQT1 (CiHQT1)
The source holds these as a separate data set.

B1: HCT1 (CiHCT1) (Cichorium intybus) (protein)
chain: MKIEVRESTMVRPAEETPKINLWNSNVDLVVPNFHTPSVYFYRPNGATNFFDPKVMKDALSKALVPFYPMGGRLKRDEDGRIEIDCQGQGVLFVEAESDGMVDDFGDFAPTLELRKLIPAVDYSQGIESYPLLVLQVTYFKCGGVSLGVGMQHHAADGASGLHFINTWSDMARGLDLTIPPFIDRTLLRARDPPQPAFEHVEYQPAPQMKTTSKSTDEQPVPETAVAIFKLTRDQLNALKAKSKENGNTINYSSYEMLSGHVWRCVCKARNLPADQDTKLYIATDGRARLRPSLPPGYFGNVIFTTTPIAVAGELMSNPTWYAAGKIHDGLAKMDNDYLKSALDYLELQPDLKALVRGAHSFRCPNLGITSWARLPIHDADFGWGRPIFMGPGGIAYEGLSFVLPSPINDGSLSIAISLQAEHMKVFSKFLYDI
Consider B1, for which, in data set [1], the Km was 320 ± 40 µM, the Vmax stood at 14.2 µmol/min/mg and the Vmax/Km was 44400 µL/min/mg.

B2: HQT3 (CiHQT3) (Cichorium intybus) (protein)
chain: MGSDHKTMKINIKQSSLVQPSKPTIPSNKKLWTSNLDLVVGRIHILTVYFYRPNGCSNFFDPVVMKKALADVLVSFYPFAGRLSRDQNGRLEINCNGEGVLFVEAESDSTLDDFGEFTPSPELRRLTPTVDYSGDISSYPLFFAQVTHFKCGGVGLGCGVFHTLADGLSSIHFINTWSDMTRGLSIAVPPFTDRTLLRARETPTPTFDHVEYHLPPTMNTTSQNPKSSRKPSTNMLKLTIDQLNALKTAAKNDGGNTAYSTYEILAAHLWRCACKARGLPNDQQTKLYVATDGRSRLSPQLPPGYLGNVVFTATPMAKSGDLTTQPLSNSASLIRSTLSKMDNEYLRSAIDYLEVQPDLSALIRGPSYFASPNLNINTWTRLPVHDADFGWGRPVFMGPAVILYEGTIYVLPSPNNDRSMSLAVCLDADEQPLFEKFLYEF
For B2, in data set [2], the Km is 318 ± 71 µM, the Vmax was 9.9 µmol/min/mg and the Vmax/Km turned out to be 31200 µL/min/mg.

B3: HQT2 (CiHQT2) (Cichorium intybus) (protein)
chain: MGSDQKMMMNINIKKSSIIPPSETIPECPKQLWTSNLDLVVGRIHILTVYFYRPNGSANFFDPNVMKKALADVLVSFYPMAGRLDRDESGRIVINCNGEGVLFVEAESDSTLDDFGEFTPSPEFRRLTPTVDYSGDISSYPLFFAQVTHFKCGGVALGCGVFHTLSDGLSSLHFINTWSDMARGLSVAIPPFIERTLLRAREPPTPTHDHVEYHEPPSMSPTAQKPGSGSSTTMLKLTLDQLNTLKVKAKIESGQTHSTYEILAAHIWRCACKARGLPDDQLTKLYVATDGRSRLSPRLPPGYLGNVVFTATPVAKSGDLTSGSLSNTAKLIHTTLTKMDDDYLRSAIDYLESQKDLSALIRGPTYFASPNLNINAWTRLPVHDADFGYGRPIFMGPAQILYEGTVYVLPSPNNDRSVSLAVCLDANEQSLFEKFLYEL
In the case of B3, in data set [3], the Km came out at 613 ± 53 µM, the Vmax turned out to be 8.04 µmol/min/mg and the Vmax/Km came out at 13200 µL/min/mg.

B4: HQT1 (CiHQT1) (Cichorium intybus) (protein)
chain: MTNGAGSEKMKVTVKESVIVKPSKTTPIQRLWNSNIDLLVGRIHLLTIYFYRPNGSSDFFDSGVLKKALSDVLVSFFPMAGRLGKDGDGRVEINCNAEGVWFVEAEADCRIDDFGEITPSPELRRLAPTVDYSGDISSYPLFITQVTRFKCGGVSLGCGVHHTLSDGFSSLHFINTWSDVARGLSVAIPPFNDRTLLRARDPPTPMYDHVEYHPPPSLITPPENHKPPASTTILRLTLDQINDLKSKGKGDGSVYHSTFVIIAAHLWRSACKARGLSDDQPTKLYVATDGRSRLIPPLPSGYLGNVLFTTTPMAKSGEFKSESLADTARRIHNELARMDDQYMRSAIDYLELQSDLSALVRGPTYFASPNLNVNSWTRLPLYESDFGWGRPIFMGPASILYEGTIYIIPSPTDDRSLKLAVCLDSDHMSLFQKYLYDF
In the case of B4, in data set [4], the Km came to 162 ± 34 µM, the Vmax was found to be 6.78 µmol/min/mg and the Vmax/Km amounted to 42000 µL/min/mg.

As a reminder, the Km is the substrate concentration at which the rate is half of its maximum. In general, Vmax refers to the rate approached at saturating substrate.

The values are drawn from article PMC4893494, “Identification and Characterization of Five BAHD Acyltransferases Involved in Hydroxycinnamoyl Ester Metabolism in Chicory” (Frontiers in Plant Science, 2016).
